B1: recombinant hnRNPG RGG1mut (natural protein, human, UniProt P38159 1-391, looked up)
chain: MVEADRPGKLFIGGLNTETNEKALEAVFGKYGRIVEVLLMKDRETNKSRGFAFVTFESPADAKDAARDMNGKSLDGKAIKVEQATKPSFESGRRGPPPPPRSRGPPRGLAGGAGGSGGTAGPPSAGGHMDDGGYSMNFNMSSSRGPLPVKRGPPPRSGGPPPKRSAPSGPVRSSSGMGGRAPVSRGRDSYGGPPRREPLPSRRDVYLSPRDDGYSTKDSYSSRDYPSSRDTRDYAPPPRDYTYRDYGHSSSRDDYPSRGYSDRDGYGRDRDYSDHPSGGSYRDSYESYGNSRSAPPTRGPPPSYGGSSRYDDYSSSRDGYGGSRDSYSSSRSDLYSSGRDRVGRQERGLPPSMERGYPPPRDSYSSSSRGAPRGGGRGGSRSDRGGGRSRY
B2: recombinant hnRNPG RGG2mut (natural protein, human, UniProt P38159 1-391, looked up)
chain: MVEADRPGKLFIGGLNTETNEKALEAVFGKYGRIVEVLLMKDRETNKSRGFAFVTFESPADAKDAARDMNGKSLDGKAIKVEQATKPSFESGRRGPPPPPRSRGPPRGLRGGRGGSGGTRGPPSRGGHMDDGGYSMNFNMSSSRGPLPVKRGPPPRSGGPPPKRSAPSGPVRSSSGMGGRAPVSRGRDSYGGPPRREPLPSRRDVYLSPRDDGYSTKDSYSSRDYPSSRDTRDYAPPPRDYTYRDYGHSSSRDDYPSRGYSDRDGYGRDRDYSDHPSGGSYRDSYESYGNSRSAPPTRGPPPSYGGSSRYDDYSSSRDGYGGSRDSYSSSRSDLYSSGRDRVGRQERGLPPSMERGYPPPRDSYSSSSAGAPAGGGAGGSRSDRGGGRSRY
B3: recombinant hnRNPG RRMmut (natural protein, human, UniProt P38159 1-391, looked up)
chain: MVEADRPGALAIGGLNTETNEKALEAVFGKYGRIVEVLLMKDRETNKSAGAAAVTFESPADAKDAARDMNGKSLDGKAIKVEQATKPSFESGRRGPPPPPRSRGPPRGLRGGRGGSGGTRGPPSRGGHMDDGGYSMNFNMSSSRGPLPVKRGPPPRSGGPPPKRSAPSGPVRSSSGMGGRAPVSRGRDSYGGPPRREPLPSRRDVYLSPRDDGYSTKDSYSSRDYPSSRDTRDYAPPPRDYTYRDYGHSSSRDDYPSRGYSDRDGYGRDRDYSDHPSGGSYRDSYESYGNSRSAPPTRGPPPSYGGSSRYDDYSSSRDGYGGSRDSYSSSRSDLYSSGRDRVGRQERGLPPSMERGYPPPRDSYSSSSRGAPRGGGRGGSRSDRGGGRSRY

Biological target: the molecule itself
Test: dynamic light scattering

Binding result, binds:
B1
B2
B3
